Data reported in patent US20020058247A1 (TRIPEP, published 2002).

Assays:
[1] = molecular target: T1, truncated recombinant form of HBeAg containing nine residues of pre-core and the 150 first residues of HBcAg (hepatitis B virus, UniProt P03146 1-150); test: EIA, HBeAg on solid phase, fusion peptide 20 ug/well, gG2 mAb detection
T1 construct: domain: nine residues of pre-core;range 1-150; also called hepatitis B virus e antigen

[2] = molecular target: T2, Full length recombinant HBcAg (rHBcAg) encompassing residues 1-183 (hepatitis B virus, UniProt P03146 1-183); test: EIA, support-bound peptide, HBcAg 2 ug/well
T2 construct: range 1-183; also called hepatitis B virus core antigen
T2 sequence (P03146 whole entry, the tested form may be a part): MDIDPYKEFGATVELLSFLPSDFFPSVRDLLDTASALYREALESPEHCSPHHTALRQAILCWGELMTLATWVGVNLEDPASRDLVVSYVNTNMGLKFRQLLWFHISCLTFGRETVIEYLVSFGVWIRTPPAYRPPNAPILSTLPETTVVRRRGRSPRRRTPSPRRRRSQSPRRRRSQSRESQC

[3] = molecular target: T2, Full length recombinant HBcAg (rHBcAg) …; test: competition EIA, HBcAg coated 5 ug/ml, peptide 12.5 ug/ml together with mAb 4-2 (competitor); OD of bound mAb
[4] = molecular target: T2, Full length recombinant HBcAg (rHBcAg) …; test: competition EIA, HBcAg coated 1 ug/ml, peptide 6.25 ug/ml before mAb 4-2 (competitor); OD of bound mAb
[5] = molecular target: T2, Full length recombinant HBcAg (rHBcAg) …; test: competition EIA, HBcAg coated 5 ug/ml, peptide 200 ug/ml together with mAb 4-2 (competitor); OD of bound mAb
[6] = molecular target: T2, Full length recombinant HBcAg (rHBcAg) …; test: competition EIA, HBcAg coated 1 ug/ml, peptide 25 ug/ml before mAb 4-2 (competitor); OD of bound mAb
[7] = molecular target: T2, Full length recombinant HBcAg (rHBcAg) …; test: competition EIA, HBcAg coated 5 ug/ml, peptide 50 ug/ml together with mAb 4-2 (competitor); OD of bound mAb
[8] = molecular target: T2, Full length recombinant HBcAg (rHBcAg) …; test: competition EIA, HBcAg coated 1 ug/ml, peptide 50 ug/ml before mAb 4-2 (competitor); OD of bound mAb
[9] = molecular target: T2, Full length recombinant HBcAg (rHBcAg) …; test: competition EIA, HBcAg coated 1 ug/ml, peptide 200 ug/ml before mAb 4-2 (competitor); OD of bound mAb
[10] = molecular target: T3, non-structural 3 protein (NS3) of the hepatitis C virus (HCV) (hepatitis C virus); test: EIA, support-bound peptide, HCV NS3 control
T3 construct: Control antigen; also called HCV NS3

[11] = molecular target: T2, Full length recombinant HBcAg (rHBcAg) …; test: EIA, support-bound peptide, HBcAg 0.2 ug/well
[12] = molecular target: T2, Full length recombinant HBcAg (rHBcAg) …; test: competition EIA, HBcAg coated 5 ug/ml, peptide 100 ug/ml together with mAb 4-2 (competitor); OD of bound mAb
[13] = molecular target: T2, Full length recombinant HBcAg (rHBcAg) …; test: competition EIA, HBcAg coated 1 ug/ml, peptide 12.5 ug/ml before mAb 4-2 (competitor); OD of bound mAb
[14] = molecular target: T2, Full length recombinant HBcAg (rHBcAg) …; test: competition EIA, HBcAg coated 1 ug/ml, peptide 100 ug/ml before mAb 4-2 (competitor); OD of bound mAb
[15] = molecular target: T2, Full length recombinant HBcAg (rHBcAg) …; test: competition EIA, HBcAg coated 5 ug/ml, peptide 25 ug/ml together with mAb 4-2 (competitor); OD of bound mAb
[16] = molecular target: T2, Full length recombinant HBcAg (rHBcAg) …; test: competition EIA, HBcAg coated 5 ug/ml, peptide 6.25 ug/ml together with mAb 4-2 (competitor); OD of bound mAb
[17] = molecular target: serum HBeAg in HBeAg-transgenic mice (hepatitis B virus); test: cell-based or functional assay
Sequence of serum HBeAg in HBeAg-transgenic mice (hepatitis B virus) (P0C573 20-183): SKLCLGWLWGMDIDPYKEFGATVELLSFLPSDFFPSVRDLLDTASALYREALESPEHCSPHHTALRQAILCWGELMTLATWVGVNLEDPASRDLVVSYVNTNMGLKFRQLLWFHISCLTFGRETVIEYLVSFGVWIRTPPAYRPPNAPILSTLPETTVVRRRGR

T1 sequence (P03146 1-150): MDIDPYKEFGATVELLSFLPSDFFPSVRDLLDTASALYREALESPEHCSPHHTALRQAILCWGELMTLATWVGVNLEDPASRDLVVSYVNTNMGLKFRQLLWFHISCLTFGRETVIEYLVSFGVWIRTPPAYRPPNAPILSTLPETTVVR

Q: How did the “gG2 mAb binding (OD)” value [1] turn out when KLSCKASGYIFTSEHRGGPEE (also called fusion peptide) [KLSCKASGYIFTSEHRGGPEE (SEQ. ID. No. 70)] was run?
A: 0.022 OD

Q: What does the source list for QQKPGQPPKLLIKYASNLES [QQKPGQPPKLLIKYASNLES (SEQ. ID. No. 19)]?
A: OD at 405 nm [2]: 0.299 OD; OD at 490 nm [3]: 1.24 OD; OD at 490 nm [4]: 0.336 OD; OD at 490 nm [5]: 0.925 OD; OD at 490 nm [6]: 0.406 OD; OD at 490 nm [7]: 1.23 OD; OD at 490 nm [8]: 0.383 OD; OD at 490 nm [9]: 0.368 OD; OD at 405 nm [10]: 0.016 OD; OD at 405 nm [11]: 0.064 OD; OD at 490 nm [12]: 1.11 OD; OD at 490 nm [13]: 0.391 OD; OD at 490 nm [14]: 0.394 OD; OD at 490 nm [15]: 1.24 OD; OD at 490 nm [16]: 1.06 OD

Q: Which “gG2 mAb binding (OD)” value [1] does the source give for VKLSCKASGYIFTSEHRGGPE (also called fusion peptide) [VKLSCKASGYIFTSEHRGGPE (SEQ. ID. No. 73)] here?
A: 0.029 OD

Q: KLSCKASGYIFTSHRGGPEEF (also called fusion peptide) [KLSCKASGYIFTSHRGGPEEF (SEQ. ID. No. 71)] was tested. Which “gG2 mAb binding (OD)” value [1] did it give?
A: 0.638 OD

Q: Which results are given for VKLSCKASGYIFTSHRGGPEE [VKLSCKASGYIFTSHRGGPEE (SEQ. ID. No. 74)]?
A: gG2 mAb binding (OD) [1]: 1.73 OD; Fold change in serum HBeAg levels by EIA in HBeAg-Tg mice, day 0 [17]: 1 fold; Fold change in serum HBeAg levels by EIA in HBeAg-Tg mice, day 1 [17]: 1.5 fold; Fold change in serum HBeAg levels by EIA in HBeAg-Tg mice, day 3 [17]: 2.3 fold; Fold change in serum HBeAg levels by EIA in HBeAg-Tg mice, day 6 [17]: 2.3 fold; Fold change in serum HBeAg levels by EIA in HBeAg-Tg mice, day 9 [17]: 3.3 fold

Q: How did the “gG2 mAb binding (OD)” value [1] turn out when KLSCKASGYIFTSRGGPEEFE (also called fusion peptide) [KLSCKASGYIFTSRGGPEEFE (SEQ. ID. No. 72)] was run?
A: 0.04 OD

Q: How did the “gG2 mAb binding (OD)” value [1] turn out when VKLSCKASGYIFTSGGPEEFE (also called fusion peptide) [VKLSCKASGYIFTSGGPEEFE (SEQ. ID. No. 76)] was run?
A: 0.024 OD
